Data reported in US20140242083A1 (Hoffmann-La Roche, published 2014).

Key:
[1] = target: T1, human MCSP (melanoma chondroitin sulfate proteoglycan) on melanoma cells (human, UniProt Q6UVK1 30-2322); test: FACS titration on A375 melanoma cells, FITC anti-human IgG Fc secondary antibody
T1 construct: Native MCSP on the human melanoma lines Colo38, A2058 and A375; also called surface MCSP; CSPG4
Method: (§1) Binding activity was determined by the following method. Target cells were detached from culture flask with cell dissociation buffer, counted and checked for viability. Cells were resuspended and adjusted to 1.111×10⁶ (viable) cells/ml in PBS-0.1% BSA. 180 μl of this suspension were transferred to each well (200,000 cells/well) in a round bottom 96-well-plate, centrifuged for 4 min, at 400 g, and resuspended. 20 μl of antibody dilutions in PBS-0.1% BSA (from 10 μg/ml to […]) were added to each well. The samples were centrifuged for 4 min, at 400 g, and resuspended. Secondary antibody, FITC-conjugated AffiniPure F(ab′)2 fragment goat anti-human IgG Fcg Fragment Specific (Jackson Immuno Research Lab #109-096-098)), was added and the sample centrifuged for 4 min, at 400 g, and resuspended. Fluorescence was measured in flow cytometer (e.g. FACS Canto II). Antibody 9.2.27, described in Morgan A C Jr, Galloway D R, Reisfeld R A. Hybridoma. 1981; 1(1):27-36.; GenBank Accession Numbers: GI:20797193 and GI:20797189 for light and heavy chain respectively, was used as a reference (FIG. 2). Human melanoma cell-lines Colo38, A2058, and A375 were used. Giacomini et al. 1985 (for Colo38). Marquardt H, Todaro G J. J Biol. Chem. 1982 May 10; 257(9):5220-5 (for A2058). Geiser M, Schultz D, Le Cardinal A, Voshol H, Garcia-Echeverria C. Cancer Res. 1999 Feb. 15; 59(4):905-10 (for A375).

[2] = target: T1, human MCSP (melanoma chondroitin …); test: FACS titration on A2058 melanoma cells, FITC anti-human IgG Fc secondary antibody
Method: as §1

[3] = target: T1, human MCSP (melanoma chondroitin …); test: FACS titration on Colo38 melanoma cells, FITC anti-human IgG Fc secondary antibody
Method: as §1

[4] = target: T2, Construct 1 (CSPG repeat 15 of human MCSP with the natural transmembrane domain) (human, UniProt Q6UVK1 2044-2246); test: FACS titration of LC007 on HEK-EBNA cells transfected with the construct; mock-transfected cells as control
T2 construct: Expressed on HEK-EBNA cells; contains the original transmembrane region; also called MCSP repeat 15 construct
T2 sequence: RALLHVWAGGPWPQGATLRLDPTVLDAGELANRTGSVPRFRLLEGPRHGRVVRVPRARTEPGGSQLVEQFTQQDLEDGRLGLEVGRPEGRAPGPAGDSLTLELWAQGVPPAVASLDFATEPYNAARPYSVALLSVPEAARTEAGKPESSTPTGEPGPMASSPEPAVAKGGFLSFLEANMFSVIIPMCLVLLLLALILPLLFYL

[5] = target: T3, human MCSP D3 domain expression construct (C-terminal part, N-terminal FLAG-tag) in HEK-EBNA cells (human, UniProt Q6UVK1 1582-2224, limits assumed); test: flow cytometry titration of LC007 on HEK-EBNA cells expressing the construct; untreated EBNA cells as control
T3 construct: 'A similar construct' to the cynomolgus one; it is not clear whether the signal peptide and FLAG-tag are part of it; also called corresponding human expression construct; human counterpart
T3 sequence: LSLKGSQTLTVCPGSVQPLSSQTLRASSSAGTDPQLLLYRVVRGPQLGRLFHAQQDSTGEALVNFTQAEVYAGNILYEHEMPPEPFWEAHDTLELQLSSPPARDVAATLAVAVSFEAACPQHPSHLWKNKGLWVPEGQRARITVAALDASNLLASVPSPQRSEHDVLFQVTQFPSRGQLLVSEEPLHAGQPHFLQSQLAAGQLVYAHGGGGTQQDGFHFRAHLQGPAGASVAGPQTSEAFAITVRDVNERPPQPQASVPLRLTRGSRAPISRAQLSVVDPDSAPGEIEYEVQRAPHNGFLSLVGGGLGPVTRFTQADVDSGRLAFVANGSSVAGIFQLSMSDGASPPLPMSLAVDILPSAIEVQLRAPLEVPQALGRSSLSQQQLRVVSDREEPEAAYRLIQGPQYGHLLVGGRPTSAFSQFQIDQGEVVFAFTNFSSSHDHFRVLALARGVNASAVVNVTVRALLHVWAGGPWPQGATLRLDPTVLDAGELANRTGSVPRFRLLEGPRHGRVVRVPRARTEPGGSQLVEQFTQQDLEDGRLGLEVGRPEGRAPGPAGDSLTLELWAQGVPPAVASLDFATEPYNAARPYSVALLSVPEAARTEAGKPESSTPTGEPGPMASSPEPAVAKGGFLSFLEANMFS

[6] = target: T4, cynomolgus MCSP D3 domain expression construct (C-terminal part, N-terminal FLAG-tag) in HEK-EBNA cells (cynomolgus, UniProt Q6UVK1 1582-2224 (human entry), limits assumed); test: as above
T4 construct: Tested by flow cytometry on transfected cells; the membrane anchor is not described; also called cynomolgus construct; cynomolgus antigen
T4 chain: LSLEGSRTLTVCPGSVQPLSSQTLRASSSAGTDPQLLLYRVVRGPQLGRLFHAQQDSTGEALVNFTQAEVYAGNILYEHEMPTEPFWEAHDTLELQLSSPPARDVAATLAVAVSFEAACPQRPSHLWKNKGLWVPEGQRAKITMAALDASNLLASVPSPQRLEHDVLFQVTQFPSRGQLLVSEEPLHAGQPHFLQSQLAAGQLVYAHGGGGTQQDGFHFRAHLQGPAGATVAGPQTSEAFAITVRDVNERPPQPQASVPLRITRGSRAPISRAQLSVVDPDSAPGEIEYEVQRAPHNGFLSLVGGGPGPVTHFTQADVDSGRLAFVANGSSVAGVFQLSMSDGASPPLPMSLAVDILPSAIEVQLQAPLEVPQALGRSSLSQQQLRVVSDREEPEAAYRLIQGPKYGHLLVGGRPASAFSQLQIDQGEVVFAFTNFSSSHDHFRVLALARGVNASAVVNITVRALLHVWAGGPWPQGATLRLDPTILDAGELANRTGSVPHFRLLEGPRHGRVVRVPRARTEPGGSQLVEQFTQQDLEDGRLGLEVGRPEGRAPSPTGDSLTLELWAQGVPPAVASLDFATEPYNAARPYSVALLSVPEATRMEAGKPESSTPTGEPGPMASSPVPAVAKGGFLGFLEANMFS

[7] = target: T5, Construct 4 (CSPG repeat 12-15 of human MCSP) (human, UniProt Q6UVK1 1702-2246); test: FACS titration of LC007 on HEK-EBNA cells transfected with the construct; mock-transfected cells and isotype as controls
T5 construct: Expressed on HEK-EBNA cells; contains the original transmembrane region
T5 sequence: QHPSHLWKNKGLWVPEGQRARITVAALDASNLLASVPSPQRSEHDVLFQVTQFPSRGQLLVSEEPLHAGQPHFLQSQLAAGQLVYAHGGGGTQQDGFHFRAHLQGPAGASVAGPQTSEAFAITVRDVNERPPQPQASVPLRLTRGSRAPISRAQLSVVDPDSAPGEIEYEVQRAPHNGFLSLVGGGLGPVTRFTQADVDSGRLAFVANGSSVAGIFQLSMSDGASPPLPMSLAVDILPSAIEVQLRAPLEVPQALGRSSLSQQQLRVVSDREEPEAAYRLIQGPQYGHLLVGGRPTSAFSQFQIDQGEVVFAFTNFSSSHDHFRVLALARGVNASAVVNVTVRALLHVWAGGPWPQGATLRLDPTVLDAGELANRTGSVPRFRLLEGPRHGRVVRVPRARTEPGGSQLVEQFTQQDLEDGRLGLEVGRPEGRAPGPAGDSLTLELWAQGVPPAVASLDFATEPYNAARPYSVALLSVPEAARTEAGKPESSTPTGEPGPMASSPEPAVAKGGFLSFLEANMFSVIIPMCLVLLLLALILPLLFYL

T1 sequence (Q6UVK1 30-2322 limits assumed): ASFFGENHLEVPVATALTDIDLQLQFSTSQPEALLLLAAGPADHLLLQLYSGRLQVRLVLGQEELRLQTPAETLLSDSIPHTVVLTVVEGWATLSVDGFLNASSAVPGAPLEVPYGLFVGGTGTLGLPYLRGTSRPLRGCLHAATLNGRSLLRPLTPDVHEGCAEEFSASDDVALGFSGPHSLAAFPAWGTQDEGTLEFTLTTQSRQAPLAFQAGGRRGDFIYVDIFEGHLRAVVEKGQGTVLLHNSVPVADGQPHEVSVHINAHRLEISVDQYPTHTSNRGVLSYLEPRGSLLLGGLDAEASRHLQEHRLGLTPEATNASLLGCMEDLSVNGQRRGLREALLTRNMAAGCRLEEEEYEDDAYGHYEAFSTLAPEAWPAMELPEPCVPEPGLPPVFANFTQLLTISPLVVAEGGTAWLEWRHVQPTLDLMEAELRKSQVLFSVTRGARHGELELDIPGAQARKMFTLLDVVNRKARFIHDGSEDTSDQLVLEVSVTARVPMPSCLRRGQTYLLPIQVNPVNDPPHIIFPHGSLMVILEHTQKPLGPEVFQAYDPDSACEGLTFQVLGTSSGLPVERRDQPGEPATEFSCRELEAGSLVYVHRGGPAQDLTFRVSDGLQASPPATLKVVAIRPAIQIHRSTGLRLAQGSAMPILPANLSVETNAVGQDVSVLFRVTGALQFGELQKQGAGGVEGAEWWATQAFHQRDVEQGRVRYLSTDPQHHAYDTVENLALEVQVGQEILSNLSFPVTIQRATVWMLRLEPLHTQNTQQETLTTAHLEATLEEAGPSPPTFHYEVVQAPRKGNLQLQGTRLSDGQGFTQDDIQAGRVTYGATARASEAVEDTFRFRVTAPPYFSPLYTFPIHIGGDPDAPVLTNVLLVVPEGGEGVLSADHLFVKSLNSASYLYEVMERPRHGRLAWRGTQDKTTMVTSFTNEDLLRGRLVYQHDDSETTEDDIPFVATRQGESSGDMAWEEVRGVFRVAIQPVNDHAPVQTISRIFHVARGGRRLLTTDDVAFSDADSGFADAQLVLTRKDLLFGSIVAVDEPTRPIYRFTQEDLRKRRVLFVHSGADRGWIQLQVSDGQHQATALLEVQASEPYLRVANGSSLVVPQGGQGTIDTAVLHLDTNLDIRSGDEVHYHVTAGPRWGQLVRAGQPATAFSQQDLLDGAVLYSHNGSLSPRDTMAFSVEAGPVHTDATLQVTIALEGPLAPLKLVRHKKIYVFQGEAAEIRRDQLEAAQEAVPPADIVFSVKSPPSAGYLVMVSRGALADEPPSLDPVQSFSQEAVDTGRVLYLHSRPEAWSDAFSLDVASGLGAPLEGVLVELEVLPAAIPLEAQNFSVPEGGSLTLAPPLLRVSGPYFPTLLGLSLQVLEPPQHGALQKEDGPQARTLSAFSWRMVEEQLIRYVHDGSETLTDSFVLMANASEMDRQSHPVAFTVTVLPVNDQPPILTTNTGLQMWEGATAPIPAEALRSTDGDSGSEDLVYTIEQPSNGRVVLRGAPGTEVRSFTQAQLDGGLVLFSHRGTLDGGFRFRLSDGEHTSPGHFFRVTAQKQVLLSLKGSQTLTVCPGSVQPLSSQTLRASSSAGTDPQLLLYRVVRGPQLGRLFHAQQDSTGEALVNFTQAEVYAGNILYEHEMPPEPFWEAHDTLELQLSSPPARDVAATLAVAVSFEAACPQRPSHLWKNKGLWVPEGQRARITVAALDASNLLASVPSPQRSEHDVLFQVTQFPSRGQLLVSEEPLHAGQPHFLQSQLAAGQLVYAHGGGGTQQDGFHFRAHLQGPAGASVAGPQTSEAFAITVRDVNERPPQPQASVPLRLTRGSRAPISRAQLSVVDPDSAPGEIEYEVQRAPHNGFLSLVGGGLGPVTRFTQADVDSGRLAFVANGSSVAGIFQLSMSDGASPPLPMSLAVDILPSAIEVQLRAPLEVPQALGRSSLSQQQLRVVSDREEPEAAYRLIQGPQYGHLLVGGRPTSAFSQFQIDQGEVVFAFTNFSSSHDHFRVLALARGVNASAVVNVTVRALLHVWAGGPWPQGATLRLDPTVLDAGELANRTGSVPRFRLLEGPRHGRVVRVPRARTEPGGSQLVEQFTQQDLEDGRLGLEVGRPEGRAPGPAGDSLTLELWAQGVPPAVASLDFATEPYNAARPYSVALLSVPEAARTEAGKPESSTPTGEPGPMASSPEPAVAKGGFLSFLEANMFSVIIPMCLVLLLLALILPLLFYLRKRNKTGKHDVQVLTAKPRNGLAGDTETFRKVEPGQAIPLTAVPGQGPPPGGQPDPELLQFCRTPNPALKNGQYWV

EC50 (read off the curve) [1]: ~0.05 µg/mL
EC50 (read off the curve) [2]: ~0.03 µg/mL
EC50 (read off the curve) [3]: ~0.05 µg/mL
binding result [4]: no binding (tested: 5 ug/ml)
EC50 (read off the curve) [5]: ~0.08 µg/mL
EC50 (read off the curve) [6]: ~0.1 µg/mL
EC50 (read off the curve) [7]: ~0.3 µg/mL
B1: chimeric antibody LC007 (antibody, human IgG1, kappa, V domains shown)
VH: EVQLQESGPGLVKPSQSLSLTCSVTGYSITSGYYWNWIRQFPGNKLEWMGYITYDGSNNYNPSLKNRISITRDTSKNQFFLKLNSVTTEDTATYYCADFDYWGQGTTLTVSS
VL: DIVLTQSPSSLSASLGDRVTISCSASQGIRNYLNWYQQRPDGTVKLLIYYTSSLHSGVPSRFSGSGSGTDYSLTISNLEPEDIATYYCQQYSKLPWTFGGGTKLEIKR
notes: all such entries are written under the chimeric antibody; also called LC007 antibody; LC007 wt
